The values below are quoted from earlier work in patent publication US20240247069A1, “FGFR3 BINDING MOLECULES AND METHODS OF USE THEREOF” (Regeneron Pharmaceuticals, Inc., priority 2023, published 2024).

Where two headings read alike, the source gives them in different places.

This data set relates to FGFR3.
Setting [1] is: literature antibodies, sequences from cited PCT publications.
[2] abbreviates: Table T-3, exemplary FGFR3 D3 binding sequences from cited PCT publications.

B1: VH: SEQ ID NO: 7 of PCT Publication No: WO 2010/048026 A2: unnamed anti-FGFR3 Ig-like domain 2 antibody of WO 2010/048026 A2; VH SEQ ID NO:61, VL SEQ ID NO:62 (antibody, V domains shown)
VH: EVQLVQSGAEVKKPGASVKVSCKASGYMFTSYGISWVRQAPGQGLEWMGWVSTYNGDTNYAQKFQGRVTVTTDTSTSTAYMELRSLRSEDTAVYYCARVLGYYDSIDGYYYGMDVWGQGTTVTVSS
VL: QSVLTQPPSLSVAPGKTATFTCGGNNIGDKSVHWYRQKPGQAPVLVMYLDTERPSGIPERMSGSNFGNTATLTITRVEAEDEADYYCQVWDSGSDHVVFGGGTKLTVLG
In the case of B1, the Activity entry under setting [1] is “Antagonistic”.

B2: KE35: anti-FGFR3 IIIb and IIIc antibody of WO 2022/040560 A1; VH SEQ ID NO:74, VL SEQ ID NO:75 (antibody, V domains shown)
VH: EVQLQQSGPELVKPGASVKMSCKASGYTFTDYNMHWVKQSHGKSLEWIGYINPNNGGTRYNQKFKGKATLTVNKSSSTAYMELRSLTSEDSAVYYCARERDYDGAMDYWGQGTSVTVSS
VL: DIQMTQSPSSLSASLGGKVTITCKASQDINKFIAWYQHKPGKGPRLLIHYTSTLQPGIPSRFSGSGSGRDYSFSISNLEPEDIATYYCLQYDNLLWTFGGGTKLEIK
In the case of B2, the Activity entry is “Antagonistic” under setting [2] and “Antagonistic” under setting [1].

B3: KE42: anti-FGFR3 IIIb and IIIc antibody of WO 2022/040560 A1; VH SEQ ID NO:76, VL SEQ ID NO:77 (antibody, V domains shown)
VH: EVQLQQSGPELVKPGASVKMSCKASGYTFTDYNMHWVKQSHGKSLQWIGYINPNNGGTNYNQNFKDKATLTVNKSSTTAYMELRSLTSEDSAVYYCARERDYDGSMDFWGQGTSVTVSS
VL: DIQMTQSPSSLSASLGGKVTITCKASQDINKFIAWYQHKPGKGPRLLIHYTSTLQPGIPSRFSGSGSGRDYSFSISNLEPEDIATYFCLQYDNLLWTFGGGTKLEIK
On to B3, for which the Activity entry is, setting by setting: under setting [2], “Antagonistic”; under setting [1], “Antagonistic”.

B4: MS-Pro-59: anti-FGFR3 Ig-like domain 3 antibody of WO 2002/102972 A2; VH SEQ ID NO:28, VL SEQ ID NO:29 (antibody, V domains shown)
VH: QVQLQQSGPGLVKPSQTLSLTCAISGDSVSSNSAAWNWIRQSPGRGLEWLGRTYYRSKWYNDYAVSVKSRITINDTSKNQFSLQLNSVTPEDTAVYYCARSYYPDFDYWGQGTVTVSS
VL: DIELTQPPSVSVAPGQTARISCSGDALGDKYASWYQQKPGQAPVLVIYDDSDRPSGIPERFSGSNSGNTATLTISGTQAEDEADYYCQSYDGPDLWVFGGGTKLTVLGQ
B4: the Activity entry reads like this: under setting [2], “Antagonistic”; under setting [1], “Antagonistic”.

B5: 184.6.1.N54S: anti-FGFR3 Ig-like domain 3 antibody of WO 2010/111367 A1; VH SEQ ID NO:63, VL SEQ ID NO:64 (antibody, V domains shown)
VH: EVQLVESGGGLVQPGGSLRLSCAASGFTFTSTGISWVRQAPGKGLEWVGRIYPTSGSTNYADSVKGRFTISADTSKNTAYLQMNSLRAEDTAVYYCARARTYGIYDLYVDYTEYVMDYWGQGTLV
VL: DIQMTQSPSSLSASVGDRVTITCRASQDVDTSLAWYQQKPGKAPKLLIYSASFLYSGVPSRFSGSGSGTDFTLTISSLQPEDFATYYCQQSTGHPQTFGQGTKVEIKR
With B5, the Activity entry is given as “Antagonistic” under setting [2] and “Antagonistic” under setting [1].

B6: 184.6.62: anti-FGFR3 Ig-like domain 3 antibody of WO 2010/111367 A1; VH SEQ ID NO:67, VL SEQ ID NO:68 (antibody, V domains shown)
VH: EVQLVESGGGLVQPGGSLRLSCAASGFTFSTTGISWVRQAPGKGLEWVARIYPLYGSTHYADSVKGRFTISADTSKNTAYLQMNSLRAEDTAVYYCARARTYGIYDLYVDYTEYVMDYWGQGTLV
VL: DIQMTQSPSSLSASVGDRVTITCRASQDVSTAVAWYQQKPGKAPKLLIYSASFLYSGVPSRFSGSGSGTDFTLTISSLQPEDFATYYCQQTYTTSLTFGQGTKVEIKR
As for B6, the Activity entry runs as follows: under setting [2], “Antagonistic”; under setting [1], “Antagonistic”.

B7: 184.6.1.NS D30E: anti-FGFR3 Ig-like domain 3 antibody of WO 2010/111367 A1; VH SEQ ID NO:63, VL SEQ ID NO:69 (antibody, V domains shown)
VH: EVQLVESGGGLVQPGGSLRLSCAASGFTFTSTGISWVRQAPGKGLEWVGRIYPTSGSTNYADSVKGRFTISADTSKNTAYLQMNSLRAEDTAVYYCARARTYGIYDLYVDYTEYVMDYWGQGTLV
VL: DIQMTQSPSSLSASVGDRVTITCRASQDVETSLAWYQQKPGKAPKLLIYSASFLYSGVPSRFSGSGSGTDFTLTISSLQPEDFATYYCQQSTGHPQTFGQGTKVEIKR
Consider B7, for which the Activity entry runs as follows: under setting [2], “Antagonistic”; under setting [1], “Antagonistic”.

B8: 184.6.58: anti-FGFR3 Ig-like domain 3 antibody of WO 2010/111367 A1 (aka R3Mab); VH SEQ ID NO:65, VL SEQ ID NO:66; comparator REGN6331 (antibody, V domains shown)
VH: EVQLVESGGGLVQPGGSLRLSCAASGFTFTSTGISWVRQAPGKGLEWVARIYPTNGSTNYADSVKGRFTISADTSKNTAYLQMNSLRAEDTAVYYCARARTYGIYDLYVDYTEYVMDYWGQGTLV
VL: DIQMTQSPSSLSASVGDRVTITCRASQDVDISLAWYQQKPGKAPKLLIYSASFLYSGVPSRFSGSGSGTDFTLTISSLQPEDFATYYCQQGAGNPYTFGQGTKVEIKR
notes: anti-FGFR3 Ig-like domain 3 antibody of WO 2010/111367 A1 (aka R3Mab); comparator REGN6331
On to B8, for which the Activity result runs as follows: under setting [2], “Antagonistic”; under setting [1], “Antagonistic”.

B9: B-701: anti-FGFR3 antibody of WO 2016/134234 A1; VH SEQ ID NO:70, VL SEQ ID NO:71 (antibody, V domains shown)
VH: EVQLVESGGGLVQPGGSLRLSCAASGFTFTSTGISWVRQAPGKGLEWVGRIYPTSGSTNYADSVKGRFTISADTSKNTAYLQMNSLRAEDTAVYYCARTYGIYDLYVDYTEYVMDYWGQGTLV
VL: DIQMTQSPSSLSASVGDRVTITCRASQDVDTSLAWYKQKPGKAPKLLIYSASFLYSGVPSRFSGSGSGTDFTLTISSLQPEDFATYYCQQSTGHPQTFGQGTKVEIKR
Consider B9, for which the Activity result under setting [1] is recorded as “Antagonistic”.

B10: KC18: anti-FGFR3 IIIb and IIIc antibody of WO 2022/040560 A1; VH SEQ ID NO:72, VL SEQ ID NO:73 (antibody, V domains shown)
VH: QVQLQQSGAELVRPGASVTLSCKASGDTFTDFEIHWVKQTPVHGLEWIGDIDPETGGTAYNQKFRGRAMLTADRSSSTAYMELRSLTSEDSAVYYCTRTYDGYPYAMDYWGQGTSVTVSS
VL: DIVMSQSPSSLAVSVGEKVTMSCKSSQSLLYSNNQKNYLAWYQQKPGQSPKLLIYWASTRESGVPDRFTGSGSGTDFTLTISSVKAEDLAVYYCQQYYSYRTFGGGTKLEIK
On to B10, for which the Activity result is “Antagonistic” under setting [2] and “Antagonistic” under setting [1].
